T1: human Trop-2-ECD-6His fusion protein (Homo sapiens, UniProt P09758)
T1 construct: made in house; host or cells: human 293 cell line
T1 sequence (P09758 with tags, fused parts or gaps): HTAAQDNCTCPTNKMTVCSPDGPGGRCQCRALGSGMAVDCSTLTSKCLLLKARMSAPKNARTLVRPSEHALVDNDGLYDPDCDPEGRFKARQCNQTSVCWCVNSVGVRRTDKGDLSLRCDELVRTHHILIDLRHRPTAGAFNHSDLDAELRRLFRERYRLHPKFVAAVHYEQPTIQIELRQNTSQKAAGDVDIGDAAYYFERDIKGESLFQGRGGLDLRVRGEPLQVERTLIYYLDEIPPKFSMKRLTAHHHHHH

T2: human Trop-2ECD-6His (Homo sapiens, UniProt P09758)
T2 construct: made in house; host or cells: human 293 cell line
T2 sequence (P09758 with tags, fused parts or gaps): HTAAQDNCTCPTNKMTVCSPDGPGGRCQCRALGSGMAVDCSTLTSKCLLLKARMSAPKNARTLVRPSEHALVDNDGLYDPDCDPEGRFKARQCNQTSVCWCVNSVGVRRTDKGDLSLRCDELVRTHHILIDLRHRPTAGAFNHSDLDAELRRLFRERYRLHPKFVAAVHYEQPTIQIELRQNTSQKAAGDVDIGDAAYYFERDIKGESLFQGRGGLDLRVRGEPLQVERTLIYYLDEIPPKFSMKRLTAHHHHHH

T3: mouse Trop-2-His (Mus musculus, UniProt Q8BGV3)
T3 sequence (Q8BGV3 25-317): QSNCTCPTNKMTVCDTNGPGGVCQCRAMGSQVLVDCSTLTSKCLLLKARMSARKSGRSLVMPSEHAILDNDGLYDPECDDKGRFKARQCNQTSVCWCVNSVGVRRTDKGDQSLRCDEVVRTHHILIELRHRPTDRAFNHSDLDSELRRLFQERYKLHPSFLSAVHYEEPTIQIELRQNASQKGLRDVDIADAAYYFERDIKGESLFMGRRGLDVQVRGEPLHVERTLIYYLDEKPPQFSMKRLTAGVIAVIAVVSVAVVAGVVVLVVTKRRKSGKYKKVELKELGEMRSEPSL

T4: human EPCAM-His (Homo sapiens, UniProt P16422)
T4 sequence (P16422 24-314): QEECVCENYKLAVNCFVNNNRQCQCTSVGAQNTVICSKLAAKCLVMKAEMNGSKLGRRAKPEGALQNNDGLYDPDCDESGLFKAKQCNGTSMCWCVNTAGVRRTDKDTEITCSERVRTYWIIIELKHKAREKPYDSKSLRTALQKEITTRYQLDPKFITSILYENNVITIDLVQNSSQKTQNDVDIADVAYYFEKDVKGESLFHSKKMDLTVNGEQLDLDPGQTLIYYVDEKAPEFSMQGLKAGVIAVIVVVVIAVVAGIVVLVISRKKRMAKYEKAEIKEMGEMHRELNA

T5: human Trop-2-ECD-6His fusion protein (human, UniProt P09758 27-274)
T5 construct: Expressed in a human 293 cell line; also called huTrop-2; human Trop-2 antigen
T5 sequence: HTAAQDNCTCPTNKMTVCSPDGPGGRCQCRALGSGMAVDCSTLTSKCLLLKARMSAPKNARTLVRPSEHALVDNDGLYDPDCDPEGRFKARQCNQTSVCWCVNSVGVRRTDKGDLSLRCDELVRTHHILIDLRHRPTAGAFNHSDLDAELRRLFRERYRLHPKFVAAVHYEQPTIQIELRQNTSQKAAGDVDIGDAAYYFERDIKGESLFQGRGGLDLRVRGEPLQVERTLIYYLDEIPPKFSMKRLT


Assays:
[1] = molecular target: T1, human Trop-2-ECD-6His fusion protein; assay: Antigen binding assay (ELISA) on immobilized Trop-2-ECD-6His; settings: for OD value, Conditioned Medium 1 to 1 ratio / OD value, Conditioned Medium 1 to 10 ratio: Table 3, ELISA absorbance at 405 nm
Protocol: Using the HCVR sequence and LCVR sequence of mAbs #118-2-5 and #125-1-5, two murine-human chimeric IgG1 (hereinafter “chimeric IgG1”) was prepared which comprised the heavy chain sequences set forth in SEQ ID NOs: 47 and 49, and the light chain sequences set forth in SEQ ID NOs: 48 and 50. Nucleic acids encoded by SEQ ID NO: 19, 20 and SEQ ID NO: 21, 22 were amplified and inserted into pTT5 to make an expression plasmid of the full-length IgG. The heavy chain and light chain expression plasmids were used to co-transfect 100 mL HEK293-6E cells. The recombinant IgG secreted into to media was purified using protein A affinity. The purified IgG migrated as ~150 kDa band in SDS-PAGE under non-reducing conditions, ~55 kDa and ~30 kDA bands under reducing condition. The purity of the chimeric IgG is >90%. The binding affinity between the chimeric IgGs and a human Trop-2-ECD-6His fusion protein (SEQ ID NO:2) was determined by ELISA. The Trop-2-ECD-6His fusion protein was immobilized on the surface of a microplate wells and incubated with the chimeric IgGs. A secondary enzyme-labeled goat-anti-mouse IgG-AP was then added. After washing, the activity of the microplate well-bound enzyme was measured by adding the substrate. Color development and absorbance at 405 nm were read.

[2] = test system: Trop-2 positive breast cancer cell line MDA-MB-468; assay: Internalization assay by flow cytometry (Example 2 protocol); type: cell-based, human; settings: Table 4; chimeric IgGs; 2 hours at 37° C.; 100 × (MFI4°C - MFI37°C) / MFI4°C
Protocol: The chimeric IgG1 #118-2-5 and #125-1-5 were further evaluated by internalization assay using Trop-2 positive breast cancer cell line MDA-MB-468. MDA-MB-468 cells were seeded at 1×10^5 cell/well. Next, the chimeric or benchmark IgGs were added to cells in FACS buffer and incubated for 2 hours at 4° C. After incubation, the cells were washed to remove unbound antibody. The cells were then incubated at 37° C. After 2 hours, the cells were dissociated and stained with fluorescent-conjugated […] secondary antibodies for 30 minutes on ice in dark before being analyzed using Beckman flow cytometry system. The fluorescent intensity and cell binding percentage at each time point were analyzed by Beckman flow cytometric software. The amount of chimeric IgGs internalized into cells was determined using the following formula: % internalization rate = 100 × (MFI4°C - MFI37°C) / MFI4°C.

[3] = molecular target: T2, human Trop-2ECD-6His; assay: Cross-reactivity ELISA, human Trop-2; type: binding; settings: plate coated with 1 µg/mL antigen
Protocol: (§1) Cross-reactivity of chimeric IgG #118-2-5 and #125-1-5 to the Trop-2 antigens from different species was assessed by ELISA. In this experiment, a microtiter plate was coated overnight at 4° C. with 50 µL/well of 1 µg/mL human Trop-2ECD-6His, mouse Trop-2-His, cynomolgus Trop-2-His, human EPCAM-His, and a non-related protein. The plate was washed and blocked for 1 hr at 37° C., and then washed with wash buffer. Purified chimeric IgGs appropriately diluted in PBS were added to wells and incubated for 1 hr at 37° C. After washing, bound antibodies were detected using HRP-conjugated goat-anti-human IgG Ab. Color development and absorbance at OD450 nm were read. A non-specific mock mouse IgG and a non-specific mock human IgG were included as the negative controls, while anti-His antibody was used as a positive control.
(§2) The cross-reactivity of purified IgGs to the Trop-2 antigens from different species was tested by ELISA. In this experiment, a microtiter plate was coated overnight at 4° C. with 50 µL/well of 1 µg/mL human Trop-2ECD-6His, mouse Trop-2-His, cynomolgus Trop-2-His, human EPCAM-His, and a non-related protein. The plate was washed and blocked for 1 hr at 37° C., and then washed with wash buffer. […] After washing, bound antibodies were detected using HRP-conjugated goat-anti-human IgG antibody. Color development and absorbance at OD450 nm were read. […]

[4] = test system: cynomolgus Trop-2-His; assay: Cross-reactivity ELISA, cynomolgus Trop-2; type: binding; settings: plate coated with 1 µg/mL antigen
Protocol: as §1, §2

[5] = molecular target: T3, mouse Trop-2-His; assay: Cross-reactivity ELISA, mouse Trop-2; type: binding; settings: plate coated with 1 µg/mL antigen
Protocol: as §1
(§3) The cross-reactivity of purified IgGs to the Trop-2 antigens from different species was tested by ELISA. In this experiment, a microtiter plate was coated overnight at 4° C. with 50 µL/well of 1 µg/mL human Trop-2ECD-6His, mouse Trop-2-His, cynomolgus Trop-2-His, human EPCAM-His, and a non-related protein. The plate was washed and blocked for 1 hr at 37° C., and then washed with wash buffer. Purified anti-Trop-2 antibodies appropriately diluted in PBS were added to wells and incubated for 1 hour at 37° C. After washing, bound antibodies were detected using HRP-conjugated goat-anti-human IgG antibody. Color development and absorbance at OD450 nm were read. A non-specific human IgG1 was included as a negative control, while hRS7 was used as a positive control.

[6] = molecular target: T4, human EPCAM-His; assay: Cross-reactivity ELISA, human EPCAM; type: binding; settings: plate coated with 1 µg/mL antigen
Protocol: as §1, §3

[7] = test system: non-related protein; assay: Cross-reactivity ELISA, non-related protein; type: binding; settings: plate coated with 1 µg/mL protein
Protocol: as §1, §3

[8] = molecular target: T5, human Trop-2-ECD-6His fusion protein; assay: ELISA on immobilized Trop-2-ECD-6His; control, 1 to 1 ratio
[9] = molecular target: T5, human Trop-2-ECD-6His fusion protein; assay: ELISA on immobilized Trop-2-ECD-6His; control, 1 to 10 ratio
[10] = molecular target: human Trop-2 on Trop-2 positive cancer cells (human) (UniProt P09758); assay: cell-based or functional assay
[11] = molecular target: T5, human Trop-2-ECD-6His fusion protein; assay: antigen binding ELISA on immobilized human Trop-2-ECD-6His

Molecule | OD value, Conditioned Medium 1 to 1 ratio [1] | OD value, Conditioned Medium 1 to 10 ratio [1] | Internalization rate [2] | binding to human Trop-2 antigen (ELISA, OD450 nm) [3] | binding to cynomolgus Trop-2 antigen (ELISA, OD450 nm) [4] | recognition of mouse Trop-2 (ELISA, OD450 nm) [5] | recognition of mouse Trop-2 (ELISA, OD450 nm) ([5]; listed as benchmark IgG) | recognition of hEPCAM (ELISA, OD450 nm) [6] | recognition of hEPCAM (ELISA, OD450 nm) ([6]; listed as benchmark IgG) | recognition of the non-related protein (ELISA, OD450 nm) [7] | recognition of the non-related protein (ELISA, OD450 nm) ([7]; listed as benchmark IgG) | OD (absorbance at 405 nm) [8] | OD (absorbance at 405 nm) [9] | binding affinity to Trop 2 compared with benchmark hRS7 ([1]; in words, chimeric IgGs, see OD value in Table 3) | Internalization rate (flow cytometry, MDA-MB-468 cells) [10] | EC50 [11]
hRS7: anti-Trop2 antibody used in sacituzumab govitecan (IMMU-132); used as a benchmark antibody [reference compound] | 1.339 | 1.457 | 17.62% | able to bind | able to bind | some non-specific binding | did not recognize | some non-specific binding | did not recognize | some non-specific binding | did not recognize |  |  |  |  | 
BSA (from UniProt P02769 25-607) |  |  |  |  |  |  |  |  |  |  |  | 0.059 OD | 0.058 OD |  |  | 
#125-1-5 (antibody, listed as Mus musculus, V domains shown) VH: QIQLVQSGPELVKPGASVKMSCKASGYTFTTYVIHWVKQKPGQGLEWIGYINPNNDGTKYNEKFKGKATLISDKSSTTAYMEVRGLTSEDSAVYYCARPHFETHAMDYWGQGTSVTVSS VL: DIQMTQSPSSFSVSLGDSVTITCKASEDIFNRLAWYQQKPGNAPRLLISGATSLETGVPSRFSGGGSGKEYTLSITSLQNEDVATYYCQQYWNTWTFGGGTKLEIK | 1.572 | 1.539 | 4.70% | able to bind | able to bind | did not recognize |  | did not recognize |  | did not recognize |  |  |  | higher binding affinity than the benchmark reference antibody hRS7 |  | 
humanized IgG #118-2-5 Hu(A1)/LuX (antibody, V domains shown, Second round of humanization) VH: QVQLQESGPGLVKPSETLSLTCTVSGFSLTSYGVNWIRQPPGKGLEWIGVMWAGGSTNYNSALMSRVTISVDTSKNQFSLKLSSVTAADTAVYYCARDENWDGAWFAYWGQGTLVTVSS VL: DIVMTQSPDSLAVSLGERATINCKSSQSLLNSGTRKNYLAWYQQKPGQPPKLLIYWASSRESGVPDRFSGSGSGTDFTLTISSLQAEDVAVYYCKQSYNLFTFGGGTKVEIK |  |  |  |  |  |  |  |  |  |  |  |  |  |  | 56% | 0.28 nM

From patent US20230235080A1, “TROPHOBLAST CELL-SURFACE ANTIGEN-2 (TROP-2) ANTIBODIES” (Bionecure Therapeutics, Inc., priority 2020, published 2023)
